Tests used:
[1] = biological target: Rhesus macaque (NHP) CD40 ectodomain fused to cohesin (Rhesus macaque, UniProt F6SNI1 21-193); test: multiplexed bead-based equilibrium competition; NHP CD40 ectodomain beads; competitor mouse 12E12 mAb 10 ng/ml, PE anti-mouse IgG, Bio-Plex 200
[2] = biological target: T1, human CD40 ectodomain fused to cohesin (human, UniProt P25942 22-193); test: multiplexed bead-based equilibrium competition; human CD40 ectodomain beads; competitor mouse 12E12 mAb 10 ng/ml, PE anti-mouse IgG, Bio-Plex 200
T1 construct: also called human CD40 coated beads; not shown: cohesin carrier (GenBank CP000568.1 nt 3622666-3623172) and the Nhe I site linker
T1 sequence (P25942 22-193 limits assumed, form in doubt): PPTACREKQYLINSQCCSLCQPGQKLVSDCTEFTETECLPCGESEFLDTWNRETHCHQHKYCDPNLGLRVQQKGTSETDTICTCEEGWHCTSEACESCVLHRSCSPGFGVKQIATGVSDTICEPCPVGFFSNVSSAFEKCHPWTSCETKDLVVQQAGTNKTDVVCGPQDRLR

Chain of Rhesus macaque (NHP) CD40 ectodomain fused to cohesin (F6SNI1 entry or part of it): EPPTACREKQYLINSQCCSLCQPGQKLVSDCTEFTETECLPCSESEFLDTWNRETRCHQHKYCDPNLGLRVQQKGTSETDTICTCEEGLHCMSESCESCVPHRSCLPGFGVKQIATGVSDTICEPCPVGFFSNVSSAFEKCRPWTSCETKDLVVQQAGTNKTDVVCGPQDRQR

B1: humanized αCD40 (humanized anti-human CD40 12E12 recombinant human IgG4 mAb) (antibody, V domains shown)
VH: EVQLVESGGGLVQPGGSLKLSCATSGFTFSDYYMYWVRQAPGKGLEWVAYINSGGGSTYYPDTVKGRFTISRDNAKNTLYLQMNSLRAEDTAVYYCARRGLPFHAMDYWGQGTLVTVSS
VL: DIQMTQSPSSLSASVGDRVTITCSASQGISNYLNWYQQKPGKAVKLLIYYTSILHSGVPSRFSGSGSGTDYTLTISSLQPEDFATYYCQQFNKLPPTFGGGTKLEIKG
notes: also called hAnti-CD40VH3-LV-hIgG4HC
[1]
  IC50: 0.83 pM
[2]
  IC50: 1 pM

From US20200101152A1 (INSERM INSTITUT NATIONAL DE LA SANTE ET DE LA RECHERCHE …, published 2020)
